Data: publication PMC3753675

How the values were obtained:
Experiment in all cases: EMSA
GST-hHSF1 (human) = biological target: T1, GST-hHSF1 (human) (UniProt Q00613); settings: binding buffer ([…], room temperature 2 h
T1 sequence: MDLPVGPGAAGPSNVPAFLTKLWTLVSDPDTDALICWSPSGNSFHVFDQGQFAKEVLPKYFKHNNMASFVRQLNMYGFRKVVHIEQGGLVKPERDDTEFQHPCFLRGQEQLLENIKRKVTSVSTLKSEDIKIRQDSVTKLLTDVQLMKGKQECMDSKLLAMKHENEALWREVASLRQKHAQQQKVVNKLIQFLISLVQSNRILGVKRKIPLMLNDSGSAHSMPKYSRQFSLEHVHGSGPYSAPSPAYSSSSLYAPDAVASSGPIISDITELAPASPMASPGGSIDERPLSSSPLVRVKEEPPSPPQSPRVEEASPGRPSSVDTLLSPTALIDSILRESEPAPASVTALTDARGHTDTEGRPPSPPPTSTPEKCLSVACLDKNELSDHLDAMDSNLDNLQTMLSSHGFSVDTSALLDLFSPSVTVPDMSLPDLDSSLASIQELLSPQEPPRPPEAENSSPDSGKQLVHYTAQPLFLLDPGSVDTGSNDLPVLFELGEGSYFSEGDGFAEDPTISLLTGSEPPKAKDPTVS

GST-hHSF2 (human) = biological target: T2, GST-hHSF2 (human) (UniProt Q03933); settings: binding buffer ([…], room temperature 2 h
T2 sequence: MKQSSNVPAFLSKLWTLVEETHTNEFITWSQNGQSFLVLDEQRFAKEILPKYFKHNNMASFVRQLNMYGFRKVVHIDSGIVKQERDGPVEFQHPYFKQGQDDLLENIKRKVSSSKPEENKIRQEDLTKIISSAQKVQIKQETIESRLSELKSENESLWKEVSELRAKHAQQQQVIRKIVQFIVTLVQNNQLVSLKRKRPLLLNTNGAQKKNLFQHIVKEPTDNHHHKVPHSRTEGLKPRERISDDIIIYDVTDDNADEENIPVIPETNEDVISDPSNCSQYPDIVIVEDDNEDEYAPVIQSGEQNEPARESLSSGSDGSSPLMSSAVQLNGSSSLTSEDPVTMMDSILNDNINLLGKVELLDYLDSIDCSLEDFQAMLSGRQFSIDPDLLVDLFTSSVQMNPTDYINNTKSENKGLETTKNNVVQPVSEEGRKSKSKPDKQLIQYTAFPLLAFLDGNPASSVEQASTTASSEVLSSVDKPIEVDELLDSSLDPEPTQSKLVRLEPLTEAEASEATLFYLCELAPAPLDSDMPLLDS

dHSF = biological target: T3, dHSF (Drosophila melanogaster, UniProt P22813 1-691)
T3 sequence: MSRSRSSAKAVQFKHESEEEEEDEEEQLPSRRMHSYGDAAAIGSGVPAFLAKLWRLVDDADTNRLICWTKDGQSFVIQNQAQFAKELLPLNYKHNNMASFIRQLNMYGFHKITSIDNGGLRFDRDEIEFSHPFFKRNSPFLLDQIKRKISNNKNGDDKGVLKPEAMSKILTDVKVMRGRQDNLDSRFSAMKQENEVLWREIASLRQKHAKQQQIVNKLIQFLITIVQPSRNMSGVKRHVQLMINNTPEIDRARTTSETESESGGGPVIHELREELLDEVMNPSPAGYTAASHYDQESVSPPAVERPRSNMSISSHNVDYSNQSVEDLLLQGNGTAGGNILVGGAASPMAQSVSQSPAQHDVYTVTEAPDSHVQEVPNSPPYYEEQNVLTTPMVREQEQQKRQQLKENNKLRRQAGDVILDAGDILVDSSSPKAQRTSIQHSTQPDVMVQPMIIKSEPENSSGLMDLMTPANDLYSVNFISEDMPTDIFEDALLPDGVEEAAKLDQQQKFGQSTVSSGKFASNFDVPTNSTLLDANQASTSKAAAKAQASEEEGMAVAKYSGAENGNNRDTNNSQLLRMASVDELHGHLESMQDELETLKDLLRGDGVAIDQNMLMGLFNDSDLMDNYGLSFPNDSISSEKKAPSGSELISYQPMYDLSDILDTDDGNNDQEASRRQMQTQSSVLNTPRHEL

GGGAAUGGAUCCACAUCUACGAAUUCAAUCAAGUCCCCAGACUCAGCAACACUGGACAGCGAUAUGCAGAUAACCAAGACCAAUUCACUCCAGUUCACUGCAGACUUGACGAAGCUU [hHSF2-R5-2]
Kd (GST-hHSF1 (human)): < 20 nM | Kd (GST-hHSF2 (human)): < 20 nM

GGGAAUGGAUCCACAUCUACGAAUUCCACUCCAUAGUAUCUAGAAGCCCUGCCGAAAACGAGAGCGCUUACGCUUAUAAAUGAUCAACCUACCUCGUUCACUGCAGACUUGACGAAGCUU [hHSF1-R5-1]
Kd (GST-hHSF1 (human)): < 20 nM | Kd (GST-hHSF2 (human)): < 20 nM

B1: hHSF2-R5-2 (structured_RNA)
RNA: GGGAAUGGAUCCACAUCUACGAAUUCAAUCAAGUCCCCAGACUCAGCAACACUGGACAGCGAUAUGCAGAUAACCAAGACCAAUUCACUCCAGUUCACUGCAGACUUGACGAAGCUU
Kd (dHSF): ~70 nM

B2: hHSF1-R5-1 (structured_RNA)
RNA: GGGAAUGGAUCCACAUCUACGAAUUCCACUCCAUAGUAUCUAGAAGCCCUGCCGAAAACGAGAGCGCUUACGCUUAUAAAUGAUCAACCUACCUCGUUCACUGCAGACUUGACGAAGCUU
Kd (dHSF): ~70 nM
